# Source: patent publication US20240058464A1 (Fortis Therapeutics, Inc., priority 2021, published 2024)
# Test system: CD46 expression
# Test: CD46 expression by RNA-sequencing in unpaired pre-treatment and post-treatment tumor biopsies
# Assay type: in vivo, human
# Settings: for CD46 expression diff: Post minus Pre, unpaired biopsies, log2-transformed counts; for CD46 expression Percentage change: post- vs pre-treatment unpaired biopsies; for CD46 expression Post: post-treatment biopsies, unpaired, RNA-seq log2-transformed normalized counts
Molecule,CD46 expression diff (Breast Cancer),CD46 expression Percentage change (Breast Cancer),CD46 expression Post (Breast Cancer),CD46 expression diff (Colorectal Cancer),CD46 expression Percentage change (Colorectal Cancer),CD46 expression Post (Colorectal Cancer),CD46 expression diff (Non-Small Cell Lung Cancer),CD46 expression Percentage change (Non-Small Cell Lung Cancer),CD46 expression Post (Non-Small Cell Lung Cancer)
"filgrastim (protein, chains of the INN, looked up) MTPLGPASSLPQSFLLKCLEQVRKIQGDGAALQEKLCATYKLCHPEELVLLGHSLGIPWAPLSSCPSQALQLAGCLSQLHSGLFLYQGLLQALEGISPELGPTLDTLQLDVADFATTIWQQMEELGMAPALQPTQGAMPAFASAFQRRAGGVLVASHLQSFLEVSYRVLRHLAQP",0.02,0.3%,6.23,–,–,–,–,–,–
"pegfilgrastim (protein, chains of the INN, looked up, PEG) TPLGPASSLPQSFLLKCLEQVRKIQGDGAALQEKLCATYKLCHPEELVLLGHSLGIPWAPLSSCPSQALQLAGCLSQLHSGLFLYQGLLQALEGISPELGPTLDTLQLDVADFATTIWQQMEELGMAPALQPTQGAMPAFASAFQRRAGGVLVASHLQSFLEVSYRVLRHLAQP",−0.13,−2.1%,6.25,0.29,4.6%,6.62,0.07,1.2%,6.06
